The source of these data is the supplement of paper PMC9170038.

This data set relates to MS2 coat protein. In words: apparent KD of MS2 coat protein; designed switch direction (-1 OFF switch, 1 ON switch): -1; higher = weaker reporter binding. The essentials:
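Transcription of designed RNA switches on Illumina chips was done by stalled E. coli RNA polymerase. SNAP-549-labelled MS2 coat protein was then titrated in doubling steps from 0.7 or 1.5 nM to 3 µM, with steps of 0.8–1.5 h at the lowest and 10–20 min at the highest concentration. The per-design median over clusters of curve-fitted normalised fluorescence is reported as apparent KD.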

The mark [1] stands for this setting: input ligand: microRNA oligo, concentration not stated.
The mark [2] stands for this setting: Eterna round: R95, input ligand: FMN 200 uM.
[3] abbreviates: Eterna round: R95, input ligand: microRNA oligo, concentration not stated.
The mark [4] stands for this setting: Eterna round: R95, input ligand: none.

“AUCGUGCAGCUUUGCUGUACGAGUACAUGAGGAUCACCCAUGUAGGAUAUGGUACGCUUUGCGUGCUAGAAGGAUAUGAGAUUU [JL ENG3 1.50] (Eterna round: R96, puzzle: Exclusion NG 3)”: the “apparent KD of MS2 coat protein” value was found to be 41.7 nM (input ligand: FMN 200 uM), 24.3 nM under setting [1] and 38.6 nM (input ligand: none).
Consider “AUCUGCACGCUGCGGUCCUACAUGAGGAUCACCCAUGUGGUCUGGUGGCGUGGGUCGCCGGACUUGGCUCGUCUUGG [salish99_S_TOV1_R5_050] (Eterna round: R97, puzzle: Sensor, turn-off variant 1)”, for which the “apparent KD of MS2 coat protein” value amounted to 15.4 nM (input ligand: FMN 200 uM) and 15.2 nM (input ligand: none).
Consider “AUCUUGUCAGGAUAUCGUACAAUAUGGAAAACAUAGAGGUACGAGAAGGGACAUGAGGAUCACCCAUGUAAAAC (Eterna round: R96, puzzle: Exclusion 4)”, for which the “apparent KD of MS2 coat protein” value under setting [1] was 29 nM.
For the sequence “AUGAGACAUGAGGAUCACCCAUGUGAGGAUAUGUAUGGAUGGUAGAAAGAAUGAAAGAACAGAAGGCACGUAGA [JR_Exclu1_Sub061] (puzzle: Exclusion 1)”, the “apparent KD of MS2 coat protein” value is, setting by setting: under setting [2], 143 nM; under setting [3], 150 nM; under setting [4], 210 nM.
Turning to “AUGAGAGCAGGAUAUGCAGGUGUGCCGGAAGAAAGAAGAAGACAUGAGGAUCACCCAUGUAGAAGGGCUAGCCC [Bibidi] (Eterna round: R96, puzzle: Exclusion 2)”, the “apparent KD of MS2 coat protein” value under setting [1] was found to be 15.2 nM.
For the sequence “AUGAGCAGACGGAGAUCCAACAUGAGGAUCACCCAUGUCUCAAAAGCUUUUUGCUCAUCUUAUCGUACCUUGGUGCA [Mat - Sensor v3 - turn-off var 1 - JL Mod - D14] (puzzle: Sensor v3, turn-off variant 1)”, the “apparent KD of MS2 coat protein” value is, setting by setting: under setting [2], 191 nM; under setting [3], 13.2 nM; under setting [4], 197 nM.
For “AUGAGGUUAGGAUAUACAUGAGGAUCACCCAUGUUGGAGGGUAAGGUAGGAGAAGAAAGUAGAAGGAACGGAGC [JR_Exclu3_Sub058] (puzzle: Exclusion 3)” the same measures were 68.4 nM, 82.5 nM and 99.6 nM.
As to “AUGAGUUGAGGAUAUACGUGAGGCGUUAACGCCGCCAGUCAACAUGAGGAUCACCCAUGUAGAAGGCAACCGUC [Eternabot (L1) Solution 6] (Eterna round: R97, puzzle: Exclusion 2)”, the “apparent KD of MS2 coat protein” value came out at 22.1 nM (input ligand: FMN 200 uM) and 19.7 nM (input ligand: none).
Consider “AUGAUGCAGUGAGGAUAUACAUGAGGAUCACCCAUGUUUUUUUUUUUAGAUACACUCCUUUUUUUGUAGAAGGCACUAUGAGUA [Skinny design] (Eterna round: R96, puzzle: Exclusion NG 2)”, for which the “apparent KD of MS2 coat protein” value is 121 nM (input ligand: FMN 200 uM), 24 nM under setting [1] and 46.3 nM (input ligand: none).
Turning to “AUGAUGUGAGGAUAUUAGUAGGGUAGCAGAUGACUGCCUAAUAAGAAGGCACAUGAGGAUCACCCAUGUUCACU [Eternabot (L2) Solution 11] (Eterna round: R97, puzzle: Exclusion 4)”, the “apparent KD of MS2 coat protein” value runs as follows: (input ligand: FMN 200 uM) 135 nM; (input ligand: none) 63.5 nM.
With “AUGCGUGGCUAGGAUAUUGAGGAAUUUAGCCAGCGAGAAGGAGCCACAUGAGGAUCACCCAUGUGGUGAACCUC [jl-ex6-4.60 ViennaUCT mod] (Eterna round: R97, puzzle: Exclusion 6)”, the “apparent KD of MS2 coat protein” value (input ligand: FMN 200 uM) came to 17.7 nM and the “apparent KD of MS2 coat protein” value (input ligand: none) is 18.5 nM.
Turning to “AUGCUCCGUGUAGGAUAUCGCCGUAUCACUCGGCGAGAAGGACAUGAGGAUCACCCAUGUAUGUUAUUAUCACGUGUGGCGCGC [Design 45] (Eterna round: R96, puzzle: Exclusion NG 1)”, the “apparent KD of MS2 coat protein” value is, setting by setting: (input ligand: FMN 200 uM) 55.2 nM; under setting [1], 14.8 nM; (input ligand: none) 18.3 nM.
In the case of “AUGGAACAUGAGGAUCACCCAUGUGAGGAUAUGUGAGAAGGAUUUGAGAUGGAGAGGGACAGAAGGCACUAGGA [JR_Exclu1_Sub082] (puzzle: Exclusion 1)”, the “apparent KD of MS2 coat protein” value under setting [3] stood at 37.6 nM.
As for “AUGGGUACUUUCGGAACGACAUGAGGAUCACCCAUGUAUACUGAGGAUAUCCACUACUAAGGACGGGAGAAGGCAGUGUACUGU [Ex NG3 #80] (Eterna round: R96, puzzle: Exclusion NG 3)”, the “apparent KD of MS2 coat protein” value by setting is: (input ligand: FMN 200 uM) 27 nM; under setting [1], 12.1 nM; (input ligand: none) 18.5 nM.
On the same counts, the results for “AUGGGUACUUUCGGAGCGACAUGAGGAUCACCCAUGUAUAUUGAGGAUAUCCACUACUAAGGACGGGAGAAGGCAGUGUACUGU [Ex NG3 #81] (Eterna round: R96, puzzle: Exclusion NG 3)” are 53.3 nM, 29.2 nM and 46.4 nM.
For “AUGGGUCCUCACGGAGCUACAUGAGGAUCACCCAUGUGUAUUGAGGAUAUCCACUGCCGACGGCUGGAGAAGGCAGUGUACUGU [Ex NG3 #93] (Eterna round: R96, puzzle: Exclusion NG 3)” the same measures were 97.8 nM, 61.5 nM and 109 nM.
On the same counts, the results for “AUGGGUCCUCUCGGAGCGACAUGAGGAUCACCCAUGUGUGUUGAGGAUAUCCACUGCUCAGGACGGGAGAAGGCAGUGUACUGU [Ex NG3 #86] (Eterna round: R96, puzzle: Exclusion NG 3)” are 55.9 nM, 32.5 nM and 48.8 nM.
“AUGGGUCCUUUCGGAGCGACAUGAGGAUCACCCAUGUGUGUUGAGGAUAUCCACUGCUAAGGACGGGAGAAGGCAGUGUACUGU [Ex NG3 #84] (Eterna round: R96, puzzle: Exclusion NG 3)”: the “apparent KD of MS2 coat protein” value (input ligand: FMN 200 uM) amounted to 36.2 nM, the “apparent KD of MS2 coat protein” value under setting [1] was 26.7 nM and the “apparent KD of MS2 coat protein” value (input ligand: none) came to 49.4 nM.
Take “AUGGUACAUGAGGAUCACCCAUGUUAGGAUAUCGCGUGAUCUAAAACUAAGAGACACACGAGAAGGGACGACAU (puzzle: Exclusion 1)”: the “apparent KD of MS2 coat protein” value under setting [3] worked out at 128 nM.
Turning to “AUGGUAUUAGGAUAUACAUGAGGAUCACCCAUGUGGCAUCAUGCGGUGCCGACCUACUGUAGAAGGAGUGUAAA [Eternabot (L1) Solution 64] (Eterna round: R97, puzzle: Exclusion 3)”, the “apparent KD of MS2 coat protein” value by setting is: (input ligand: FMN 200 uM) 51.3 nM; (input ligand: none) 59 nM.
Consider “AUGUACCGGUGAGGAUAUUUUUAAUAGAACUUUAUGAUAUACAUGAGGAUCACCCAUGUUACUUUAAAGAAGGCAUCGGAUUAA [Mat - Exclusion NG 2 - Mod of JL - D85] (Eterna round: R96, puzzle: Exclusion NG 2)”, for which the “apparent KD of MS2 coat protein” value under setting [1] came to 13.8 nM.
On to “AUGUGCACGCUGCGAUCCUACAUGAGGAUCACCCAUGUGGUCUGGUGGCGUGGGUCACCGGACUUGGCUCGUCUUGC [salish99_S_TOV1_R5_074] (Eterna round: R97, puzzle: Sensor, turn-off variant 1)”, for which the “apparent KD of MS2 coat protein” value (input ligand: FMN 200 uM) stood at 28.1 nM and the “apparent KD of MS2 coat protein” value (input ligand: none) turned out to be 27.6 nM.
With “AUGUGCACGCUGCGGUCCUACAUGAGGAUCACCCAUGUGGUCUGGUGGCGUGGGUCACCGGACUUGGCUCGUCUUGG [salish99_S_TOV1_R5_057] (Eterna round: R97, puzzle: Sensor, turn-off variant 1)”, the “apparent KD of MS2 coat protein” value is, setting by setting: (input ligand: FMN 200 uM) 22.4 nM; (input ligand: none) 24.3 nM.
